According to patent US20110263454A1, “Methods of Identifying Functional Characteristics of Promoters, Transcription Modifying Proteins and Transcription Modulating Agents” (Salk Institute for Biological Studies, priority 2008, published 2011):

B1: RXRg: Retinoic X Receptor γ (NR2B3), cDNA driver (protein, UniProt P48443 1-463, looked up)
Retinoic acid receptor …: MYGNYSHFMKFPAGYGGSPGHTGSTSMSPSAALSTGKPMDSHPSYTDTPVSAPRTLSAVGTPLNALGSPYRVITSAMGPPSGALAAPPGINLVAPPSSQLNVVNSVSSSEDIKPLPGLPGIGNMNYPSTSPGSLVKHICAICGDRSSGKHYGVYSCEGCKGFFKRTIRKDLIYTCRDNKDCLIDKRQRNRCQYCRYQKCLVMGMKREAVQEERQRSRERAESEAECATSGHEDMPVERILEAELAVEPKTESYGDMNMENSTNDPVTNICHAADKQLFTLVEWAKRIPHFSDLTLEDQVILLRAGWNELLIASFSHRSVSVQDGILLATGLHVHRSSAHSAGVGSIFDRVLTELVSKMKDMQMDKSELGCLRAIVLFNPDAKGLSNPSEVETLREKVYATLEAYTKQKYPEQPGRFAKLLLRLPALRSIGLKCLEHLFFFKLIGDTPIDTFLMEMLETPLQIT
B2: TR4: Testicular Orphan Nuclear Receptor 4 (NR2C2), cDNA driver (protein, UniProt P49116 1-596, looked up)
Nuclear receptor subfamily 2 …: MTSPSPRIQIISTDSAVASPQRIQIVTDQQTGQKIQIVTAVDASGSPKQQFILTSPDGAGTGKVILASPETSSAKQLIFTTSDNLVPGRIQIVTDSASVERLLGKTDVQRPQVVEYCVVCGDKASGRHYGAVSCEGCKGFFKRSVRKNLTYSCRSNQDCIINKHHRNRCQFCRLKKCLEMGMKMESVQSERKPFDVQREKPSNCAASTEKIYIRKDLRSPLIATPTFVADKDGARQTGLLDPGMLVNIQQPLIREDGTVLLATDSKAETSQGALGTLANVVTSLANLSESLNNGDTSEIQPEDQSASEITRAFDTLAKALNTTDSSSSPSLADGIDTSGGGSIHVISRDQSTPIIEVEGPLLSDTHVTFKLTMPSPMPEYLNVHYICESASRLLFLSMHWARSIPAFQALGQDCNTSLVRACWNELFTLGLAQCAQVMSLSTILAAIVNHLQNSIQEDKLSGDRIKQVMEHIWKLQEFCNSMAKLDIDGYEYAYLKAIVLFSPDHPGLTSTSQIEKFQEKAQMELQDYVQKTYSEDTYRLARILVRLPALRLMSSNITEELFFTGLIGNVSIDSIIPYILKMETAEYNGQITGASL

Legend:
hG6PD promoter = assay: NHR-promoter luciferase screen, hG6PD promoter; assay type: cell-based, human; settings: for Luc. act., normalized to lacZ / Normalized Luc. act., normalized to control: G6PD promoter reporter, co-transfected HR, without or with its ligand; for Normalized Luc. act., normalized to control: relative to control; for luciferase activity normalized to lacZ activity and to a control, hG6PD: hG6PD promoter-luciferase, CV-1 cells, NHR +/- ligand, control = 1.00
Outline: (§1)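 CV-1 cells were co-transfected with 50 ng NHR (homodimer or NHR/RXR heterodimer), 100 ng promoter-luciferase construct and 50 ng LacZ. Luciferase was normalized to LacZ and to a no-NHR/no-ligand control.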

RevErba promoter = assay: NHR-promoter luciferase screen, RevErba (RVRa) promoter; assay type: cell-based; parameters: key to mRevErba promoter reporter activity / Normalized Luc. act., normalized to control: luciferase activity normalized to lacZ and to control (no NHR/ligand); settings: for Luc. act., normalized to lacZ / Normalized Luc. act., normalized to control / negative reciprocal of normalized Luc. act. (fold repression; Table 33) / normalized Luc. act. on a logarithmic scale (column without head, Table 33): RVRa promoter; for Luc. act., normalized to lacZ / Normalized Luc. act., normalized to control: HR component without or with ligand; for negative reciprocal of normalized Luc. act. (fold repression; Table 33): given only where activity is below control; for normalized Luc. act. on a logarithmic scale (column without head, Table 33): log10 of activity normalized to control; for mRevErba promoter reporter activity: transcription factor +/- ligand, control = 1.00
Outline: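 CV-1 cells co-transfected with NHR (pcDNA3.1, C-terminal V5H6 tag) as homodimer or RXR heterodimer, RevErbα promoter–luciferase reporter and LacZ transfection control; ligand added where applicable. Luciferase normalized to LacZ and to no-NHR/no-ligand control.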

hPOMC promoter = assay: NHR-promoter luciferase screen, hPOMC promoter; assay type: cell-based, human; settings: for Luc. act., normalized to lacZ / Normalized Luc. act., normalized to control: hPOMC promoter, HR/ligand component; for hPOMC promoter reporter activity: transcription factor +/- ligand, control = 1.00
Outline: as §1

mPOMC promoter = assay: NHR-promoter luciferase screen, mPOMC promoter; assay type: cell-based, mouse; settings: for Results of assays of transcription factor (+/- ligand) with mPOMC: Table 6d, luciferase activity relative to control (control = 1.00); for Luc. act., normalized to lacZ / Normalized Luc. act., normalized to control: mPOMC promoter, HR component with or without ligand; for Normalized Luc. act., normalized to control: relative to control
Outline: as §1

hPPARg1 promoter = assay: NHR-promoter luciferase screen, hPPARg1 promoter; assay type: cell-based, human; settings: for Luc. act., normalized to lacZ / Normalized Luc. act., normalized to control: PPARG1 promoter, hormone receptor with or without its ligand; for Normalized Luc. act., normalized to control: relative to control; for Results of assays of transcription factor (+/- ligand) with hPPARg1: Table 6d, luciferase activity relative to control (control = 1.00)
Outline: as §1

| Molecule | Luc. act., normalized to lacZ (hG6PD promoter) | Normalized Luc. act., normalized to control (hG6PD promoter) | luciferase activity normalized to lacZ activity and to a control, hG6PD (hG6PD promoter) | Luc. act., normalized to lacZ (RevErba promoter) | Normalized Luc. act., normalized to control (RevErba promoter) | negative reciprocal of normalized Luc. act. (fold repression; Table 33) (RevErba promoter) | normalized Luc. act. on a logarithmic scale (column without head, Table 33) (RevErba promoter) | mRevErba promoter reporter activity (RevErba promoter) | Luc. act., normalized to lacZ (hPOMC promoter) | Normalized Luc. act., normalized to control (hPOMC promoter) | hPOMC promoter reporter activity (hPOMC promoter) | Results of assays of transcription factor (+/- ligand) with mPOMC (mPOMC promoter) | Luc. act., normalized to lacZ (mPOMC promoter) | Normalized Luc. act., normalized to control (mPOMC promoter) | Luc. act., normalized to lacZ (hPPARg1 promoter) | Normalized Luc. act., normalized to control (hPPARg1 promoter) | Results of assays of transcription factor (+/- ligand) with hPPARg1 (hPPARg1 promoter) | luciferase/LacZ, hPOMC (selected results) (hPOMC promoter; hPOMC promoter-luciferase, NHR +/- ligand, control = 1.0) |
| --- | --- | --- | --- | --- | --- | --- | --- | --- | --- | --- | --- | --- | --- | --- | --- | --- | --- | --- |
| B1 | 43.7 | 1.2 | 1.17 | 24.64 | 0.9 | −1.135 | −0.05 | 0.88 | 2.5 | 0.6 | 0.58 | 1.06 | 73.2 | 1.1 | 43.7 | 0.6 | 0.63 | – |
| B2 | 66.2 | 1.8 | 1.77 | 26.5 | 0.9 | −1.054 | −0.02 | 0.95 | 50.7 | 11.8 | 11.80 | 3.75 | 258.7 | 3.8 | 66.2 | 1.0 | 0.96 | 11.8 |
